According to patent US20220174981A1, “PROLINE TOLERANT TRIPEPTIDYL PEPTIDASES AND USES THEREOF” (DuPont Nutrition Biosciences APS, priority 2014, published 2022):

Assays:
H-Ala-Ala-Ala-pNA = assay: Exopeptidase Broad-Specificity Assay (EBSA) with H-Ala-Ala-Ala-pNA; pH and temperature profile; assay type: biochemical; conditions: H-Ala-Ala-Ala-pNA; 20 mM Na-glycine pH 2.0-4.0 or Na-acetate pH 4.0-5.5
Description: 10 μL of the chromogenic peptide solution (10 mM H-Ala-Ala-Ala-pNA dissolved in dimethyl sulfoxide (DMSO); MW=387.82; Bachem, Switzerland) were added to 130 μl Na-acetate (20 mM, adjusted to pH 4.0 with acetic acid) in a microtiter plate and heated for 5 minutes at 40° C. 10 μL of appropriately diluted enzyme was added and the absorption was measured in a MTP reader (Versa max, Molecular Devices, Denmark) at 405 nm. One katal of proteolytic activity was defined as the amount of enzyme required to release 1 mole of p-nitroaniline per second.
The chromogenic peptide H-Ala-Ala-Ala-pNA (MW=387.82; Bachem, Switzerland) was used to determine the activity of proline tolerant tripeptidyl peptidase in the samples produced as described above. The assay was conducted as follows, 10 μL of the chromogenic peptide solution (10 mM dissolved in dimethyl sulfoxide; DMSO) were added to 130 μl Na-acetate (20 mM, adjusted to pH 4.0 with acetic acid) in a microtiter plate and heated for 5 minutes at 40° C. 10 μL of appropriately diluted enzyme was added and the absorption was measured in an MTP reader (Versa max, Molecular Devices, Denmark) at 405 nm. One katal of proteolytic activity was defined as the amount of enzyme required to release 1 mole of p-nitroaniline per second.
The proline tolerant tripeptidyl peptidase assay described with H-Ala-Ala-Ala-pNA substrate above with modification of using the buffers 20 mM Na-glycine (pH 2.0, 2.5, 3.0, 3.5 and 4.0) or 20 mM Na-acetate buffer (pH 4.0, 4.5 and 5.5) was used to determine the pH profile of proline tolerant tripeptidyl peptidase TRI083 (FIG. 2) and TRI045 (FIG. 24)..
The proline tolerant tripeptidyl peptidase assay described above was used at temperatures 25, 50, 55, 60, 65, 70, 75, 80 and 85° C.
For proline tolerant tripeptidyl peptidase the chromogenic peptide H-Ala-Ala-Ala-pNA was used. The assay was conducted as follows, 27.5 μL of appropriately diluted enzyme was added to 200 μl McIlvaine buffer (20 mM, pH 4.0). After incubation at 50° C. for 5 min, 12.5 μL of the chromogenic peptide solution (5 mg/mL dissolved in dimethyl sulfoxide (DMSO); Sigma-Aldrich, Denmark) were added to the reaction mixture. The reaction was terminated by adding 50 μL of 0.5 M trichloroacetic acid (TCA; Sigma-Aldrich, Denmark). After centrifugation (15,000×g, 5 min), 240 μL of the solution were transferred to a microtiter plate (MTP; Kisker-biotech, Germany) and the absorption was measured in an MTP reader (Molecular Devices, Denmark) at 405 nm. One katal of proteolytic activity was defined as the amount of enzyme required to release 1 mol of p-nitroaniline per second.

H-Ala-Ala-Phe-pNA = assay: Effect of pH on TRI045 activity with H-Ala-Ala-Phe-pNA; assay type: biochemical
Description: The tripeptide substrate H-Ala-Ala-Phe-pNA (AAF-pNA from BACHEM.com, L-1095.0250) for sedolisin was prepared at 2.5 mg/ml in DMSO. The reaction was prepared by mixing 8.5 μl AAF-pNA, 7 μl DMSO, 32 μl water and 50 μl buffer with pH4.14-6.57, and 0.8 μl or 1.5 ul TRI045. The reaction was started at 30° C. by the addition of the enzyme TRI045. The initial reaction rate was recorded using a microplate reader at every 0.5 min interval at 410 nm in 96 well plate.

corn soy feed = assay: TRI045 plus pepsin and pancreatin on corn soy feed, OPA and BCA assays; assay type: biochemical; conditions: TRI045 1000 ppm, swine pepsin and pancreatin present
Description: The in vitro reaction system contained 140 μl 10% (w/v) corn soy feed slurry (14 mg corn soy feed), 10 μl TRI045 in 50m M MES-NaOH pH 6.0, 10 μl swine pepsin (1.14 U/μL in water). The reaction was incubated with shaking at 40° C. for 45 min and subsequently 34 μl swine pancreatin (0.4636 mg/mL in 1M Na-bicarbonate) were added and further incubated for additional 60 min. After incubation, the 96-well plate was centrifuged and supernatants were used for residual TRI045 activity assay and for OPA and BCA assays (see below).
Reference: P. M. Nielsen, D. Petersen and C. Dambmann. Improved Method for Determining Food Protein Degree of Hydrolysis. Journal of Food Science. 66 (2001) 642-646.
For OPA assay the following procedure was carried out.
To quantify the protein concentrations of each protease samples, the Pierce BCA Protein Assay Reagent Kit (Thermo Scientific, cat no. 23228) was used. The TRI045 sample was not purified before quantification. The Pierce BCA Protein Assay Kit is a detergent-compatible formulation based on bicinchoninic acid (BCA) for colorimetric detection and quantification of total proteins. This method combines the well-known reduction of Cu^2+ to Cu^1+ by protein in an alkaline medium with the highly sensitive and selective colorimetric detection of the cuprous cat ion (Cu^+1) using a unique reagent containing bicinchoninic acid. […]

AAF-pNA = assay: Residual activity on AAF-pNA after in vitro digestion with pepsin and pancreatin; assay type: biochemical
Description: In order to test the stability of TRI045 under the in vitro assay conditions described above (incubation in the presence of pepsin at pH3 for 45 min at 40° C. and subsequently in the presence of pancreatin for 60 min at 40° C.). The residual activity of TRI045 was subsequently assayed. The reaction mixture contained 50 μl buffer 0.1M HAC-NaAC (pH5.0), 10 μl the supernatant, and 5 μl AAF-pNA (5 mg/ml in DMSO). The reaction rate was followed at 410 nm and 30° C. every 30 seconds using a microplate reader. As a control, a commercial protease at the same concentration of 1000 ppm was used.

[1] = Stability of TRI045 in the presence of pepsin; assay type: biochemical, Swine; conditions: 500 units pepsin/mL, pH3.5, 40° C., 60 min
Description: Pepsin solution: Swine pepsin from Sigma (P7000, 674 Sigma units/mg, www.sigma.com) was used in this example and prepared in MilliQ water at 10000 Sigma unit/ml at 10000 Sigma unit/mL
Pre-incubation mixture contained: 2.5 μl TRI045 sample, 95 μl GAT buffer (50 mM glycine-50 mM acetic acid-50 mM Tris, pH3.5), 5 μl pepsin in milliQ water (10000 Sigma unit/ml) (final pepsin unit concentration: 500 Sigma unit/ml reaction mixture) in a half bottom area 96 well Corning MTP. For control, the pre-incubation mixture contained 5 μl water instead of 5 μl pepsin. The mixture was incubated at 40° C. for 60 min and then kept on ice. For assaying the residual activity, the assay mixture contained the pre-incubation mixture 5 μl, 0.1M acetic acid-sodium acetate (pH4.0) 85 μl, 5 μl H-Ala-Ala-Phe-pNA (2.5 mg/ml) from BACHEM.com (L-1095.0250). The 410 nm reading was followed in a microplate reader every 0.5 min at 30° C. N=2.

B1: TRI045: tripeptidyl peptidase having pre-pro sequence SEQ ID No. 98 and mature protein SEQ ID No. 99 (protein, listed as Arthroderma benhamiae)
chain: CRSLVTTACLRELYGLGDRVTQARDDNRIGVSGFLEEYAQYRDLELFLSRFEPSAKGFNFSEGLIAGGKNTQGGPGSSTEANLDMQYVVGLSHKAKVTYYSTAGRGPLIPDLSQPSQASNNNEPYLEQLRYLVKLPKNQLPSVLTTSYGDTEQSLPASYTKATCDLFAQLGTMGVSVIFSSGDTGPGSSCQTNDGKNATRFNPIYPASCPFVTSIGGTVGTGPERAVSFSSGGFSDRFPRPQYQDNAVKDYLKILGNQWSGLFDPNGRAFPDIAAQGSNYAVYDKGRMTGVSGTSASAPAMAAIIAQLNDFRLAKGSPVLGFLNPWIYSKGFSGFTDIVDGGSRGCTGYDIYSGLKAKKVPYASWNATKGWDPVTGFGTPNFQALTKVLP
H-Ala-Ala-Ala-pNA
  Optimum pH: 4.0
H-Ala-Ala-Phe-pNA; AAF-pNA, 30° C.
  activity at around pH4 and pH6.5: around 50%
H-Ala-Ala-Phe-pNA; pH 4.1, 0.1M HAC-NaAC
  Relative activity with pH 5.01 as 100%: 59.4%
H-Ala-Ala-Phe-pNA; pH 4.6, 0.1M HAC-NaAC
  Relative activity with pH 5.01 as 100%: 81.7%
H-Ala-Ala-Phe-pNA; pH 5.0, 0.1M HAC-NaAC
  Relative activity with pH 5.01 as 100%: 100.0%
H-Ala-Ala-Phe-pNA; pH 5.6, 0.1M HAC-NaAC
  Relative activity with pH 5.01 as 100%: 80.7%
H-Ala-Ala-Phe-pNA; pH 6.0, 0.1M Mes-NaOH
  Relative activity with pH 5.01 as 100%: 72.2%
H-Ala-Ala-Phe-pNA; pH 6.6, 0.1M Mes-NaOH
  Relative activity with pH 5.01 as 100%: 48.5%
Corn soy feed
  increase of release of free amino groups from corn soy feed (OPA value): 9%
Corn soy feed; BCA
  increase of protein solubility: 5%
AAF-pNA; 40° C.
  time stable to pepsin and pancreatin: at least 100 minutes
AAF-pNA; 1000 ppm, after pepsin 45 min and pancreatin 60 min at 40° C., control 4.3 mOD/min
  reaction rate: 19.3 mOD/min
AAF-pNA; 105 min at 40° C., pH range of 3 to 7
  stability to pepsin and pancreatin in the presence of corn soy feed: stable to pepsin and pancreatin
AAF-pNA; after subtraction of the control (4.3 mOD/min)
  residual activity on AAF-pNA relative to the commercial protease: 2.2 times
[1]
  residual activity: over 90%
